Patent publication US7364741B1, “Peptides of human Papilloma virus for use in human T cell response inducing compositions” (priority 1992, dated 2008)
Where two headings read alike, the source gives them in different places.

Assays:
HLA-A3.2 = target: T1, HLA-A3.2 (Homo sapiens, UniProt P04439); assay type: binding
T1 construct: endogenous in cells; host or cells: EBV transformed cell line GM3107 (protein purified from NP40 lysate)
Text: (§1) The method utilizes purified class I molecules and radiolabeled synthetic probes based on consensus peptides. Competitor peptides tested for their binding to the class I molecules compete for this binding with the radiolabeled consensus peptides. The HLA-A1, A2.1, A3.2, A11.2, and A24 molecules were isolated from the following cell lines, respectively: the EBV (Eppstein Barr Virus) transformed cell line Steinlin, the EBV transformed cell line JY, the EBV transformed cell line GM3107, the cell line BVR and the EBV transformed cell line KT3. After large scale culture, cells were lysed in NP40 (Fluka Biochemika, Buchs, Switzerland) and the lysate was passed over two pre-columns of inactivated sepharose CL 4B and Prot A Sepharose. Class I molecules were then purified from the cell lysate by affinity chromatography using Prot A Sepharose beads conjugated with B2.23.2 (anti-HLA-B and HLA-C) and anti-human HLA. The lysate was first depleted of B and C molecules by repeated passage over the B2.23.2 column.
(§2) After two days at 23° C. the percent of MHC-bound radioactivity was measured by size exclusion chromatography on a TSK2000 gel filtration as described by Sette et al. (1992).
(§3) Probe peptides were iodinated by using the Chloramine T method described by Buus et al. (1987). The sequences of the probe peptides used for the aforementioned HLA molecules were […] (SEQ ID NO:76) for A1, […] (SEQ ID NO:77) for A2.1, […] (SEQ ID NO:78) for A3.2, […] (SEQ ID NO:79) for A11.2, and […] (SEQ ID NO:80) for A24.
(§4) Each competitor peptide was tested in two to four completely independent experiments. Since cysteine containing peptides are susceptible to (air) oxidation during synthesis and handling, these peptides were synthesized with an alanine instead of a cysteine.

HLA-A2.1 = target: T2, HLA-A2.1 (Homo sapiens, UniProt P04439, D140Y/D185E/D98H/E176V/E277Q/G131W/G231S/I119V/I121R/I166T/I218V/L300P/L318F/N151K/N90K/P208A/P217A/Q86G/Q94H/R138H/R169H/T345S); assay type: cell-based
T2 construct: endogenous in cells; host or cells: 174CEM.T2
Protocol: Of all peptides a dilution of 1 mg/ml in 0.9% NaCl was made.
174CEM.T2 cells were cultured in Iscovel's modified Dulbecco's medium (Biochrom KG Seromed Berlin, Germany: F0465) supplemented with 100 IU/ml penicillin (Biocades Pharma, Leiderdorp, The Netherlands), 100 μg/ml kanamycin (Sigma St. Louis, USA:K-0254), 2 mM glutamine (ICN Biomedicals Inc. Costa Mesa, Calif., USA:15-801-55) and 10% fetal calf serum (FCS, Hyclone Laboratories Inc. Logan, Utah, USA:A-1115-L). Cells were cultured at a density of 2.5×10^5/ml during 3 days at 37° C., 5% CO2 in humified air.
174CEM.T2 cells were washed twice in culture medium without FCS and put in serum-free culture medium to a density of 2×10^6 cells/ml. Of this suspension 40 μl was put into a V bottomed 96 well plate (Greiner GmbH, Frickenhausen, Germany: 651101) together with 10 μl of the individual peptide dilutions (of 1 mg/ml). The end concentration is 200 μg/ml peptide with 8×10^4 174CEM.T2 cells. This solution was gently agitated for 3 minutes after which an incubation time of 16 hours at 37° C., 5% CO2 in humified air took place. Then cells were washed once with 100 μl 0.9% NaCl, 0.5% bovine serum albumin (Sigma St. Louis, USA: A-7409), 0.02% NaN3 (Merck Darmstadt, Germany:822335). After a centrifuge round of 1200 rpm the pellet was resuspended in 50 μl of saturating amounts of HLA-A2.1 specific mouse monoclonal antibody BB7.2 for 30 minutes at 4° C. Then cells were washed twice and incubated for 30 minutes with F(ab)2 fragments of goat anti-mouse IgG that had been conjugated with […] (Tago Inc Burlingame, Calif., USA: 4350) in a dilution of 1:40 and a total volume of 25 μl.
After the last incubation, cells were washed twice and fluorescence was measured at 488 nanometer on a FACScan flow-cytometer (Becton Dickinson, Franklin Lakes, N.J., USA).
The 174CEM.T2 cell line expresses “empty” and unstable HLA-A2.1 molecules that can be stabilized when a peptide is binding to the peptide presenting groove of these molecules. […] This leads to an increase in cell surface expression of the HLA-A2.1 molecule.
With background fluorescence level (without adding peptides) set on a Fluorescence Index level of 0, binding of a peptide was regarded positive when the level of fluorescence was ≧0.5.

HLA-A11.2 = experiment: Immunochemical peptide-MHC binding assay, purified HLA-A11.2, radiolabeled probe […]; set-up: species or system human; conditions: for binding ratio to standard: IC50 of standard divided by IC50 of tested peptide, cysteines synthesized as alanine
Text: as §1, §2, §3, §4

[1] = HLA-A3.2, IC50 of standard divided by IC50 of tested peptide, cysteines synthesized as alanine
[2] = HPV16 peptides, 200 μg/ml peptide, 16 hours, 174CEM.T2 cells
[3] = HPV16 peptides, 200 μg/ml peptide, 16 hours, 174CEM.T2 cells, background set on 0, binding positive when ≧0.5
[4] = HPV18 peptides, 200 μg/ml peptide, 16 hours, 174CEM.T2 cells
[5] = HPV18 peptides, 200 μg/ml peptide, 16 hours, 174CEM.T2 cells, background set on 0, binding positive when ≧0.5

T1 sequence (P04439 25-365): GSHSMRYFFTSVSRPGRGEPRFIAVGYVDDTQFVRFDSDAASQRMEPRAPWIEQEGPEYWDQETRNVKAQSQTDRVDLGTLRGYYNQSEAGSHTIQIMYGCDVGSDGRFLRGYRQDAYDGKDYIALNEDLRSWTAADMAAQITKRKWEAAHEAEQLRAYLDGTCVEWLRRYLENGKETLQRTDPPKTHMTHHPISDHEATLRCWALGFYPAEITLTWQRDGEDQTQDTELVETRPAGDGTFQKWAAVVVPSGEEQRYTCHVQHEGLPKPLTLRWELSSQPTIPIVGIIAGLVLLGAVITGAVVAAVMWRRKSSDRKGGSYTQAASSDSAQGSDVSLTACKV
T1 sequence (P61769 21-119, further chain): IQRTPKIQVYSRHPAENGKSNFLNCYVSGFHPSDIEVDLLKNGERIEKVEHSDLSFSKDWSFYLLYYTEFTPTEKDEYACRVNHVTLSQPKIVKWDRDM

HLDKKQRFH [residues 125-133 of HPV16 protein E6]
binding ratio to standard (HLA-A3.2; [1]): 0.4400

SLYGTTLEQ [residues 89-97 of HPV16 protein E6]
binding ratio to standard (HLA-A3.2; [1]): 0.0080

RHYCYSLYG [residues 84-92 of HPV16 protein E6]
binding ratio to standard (HLA-A3.2; [1]): 0.0036

TIHDIILEC [HPV16 peptide 6, residues 29-37 of HPV16 protein E6]
MF (mean HLA-A2.1 fluorescence) (HLA-A2.1; [2]): 184.5 | FI (Fluorescence Index) (HLA-A2.1; [3]): 1.8

YMLDLQPET [HPV16 peptide 12, residues 11-19 of HPV16 protein E7]
MF (mean HLA-A2.1 fluorescence) (HLA-A2.1; [2]): 283.9 | FI (Fluorescence Index) (HLA-A2.1; [3]): 3.3

TLQDIVLHL [HPV18 peptide 10]
FI (Fluorescence Index) (HLA-A2.1): 2.7 | MF (mean HLA-A2.1 fluorescence) (HLA-A2.1): 519.6

QLFLNTLSF [HPV18 peptide 12, residues 88-96 of HPV18 protein E7]
MF (mean HLA-A2.1 fluorescence) (HLA-A2.1; [4]): 258.2 | FI (Fluorescence Index) (HLA-A2.1; [5]): 0.8

FAFKDLFVV [HPV18 peptide 7, residues 47-55 of HPV18 protein E6]
MF (mean HLA-A2.1 fluorescence) (HLA-A2.1; [4]): 462.9 | FI (Fluorescence Index) (HLA-A2.1; [5]): 2.3

TGRCMSCCR [residues 140-148 of HPV16 protein E6]
binding ratio to standard (HLA-A11.2): 0.0012

IVYRDGNPY [residues 59-67 of HPV16 protein E6]
binding ratio to standard (HLA-A11.2): 0.4700 | binding ratio to standard (HLA-A3.2; [1]): 3.0000

LIRCINCQK [residues 107-115 of HPV16 protein E6]
binding ratio to standard (HLA-A11.2): 0.0120 | binding ratio to standard (HLA-A3.2; [1]): 3.7000

LFLNTLSFV [HPV18 peptide 13, residues 89-97 of HPV18 protein E7]
MF (mean HLA-A2.1 fluorescence) (HLA-A2.1; [4]): 360.3 | FI (Fluorescence Index) (HLA-A2.1; [5]): 1.6

KCDSTLRLC [residues 60-68 of HPV16 protein E7]
binding ratio to standard (HLA-A3.2; [1]): 0.0012

ELQTTIHDI [HPV16 peptide 4, residues 25-33 of HPV16 protein E6]
MF (mean HLA-A2.1 fluorescence) (HLA-A2.1; [2]): 108.0 | FI (Fluorescence Index) (HLA-A2.1; [3]): 0.6

EITCVYCKT [HPV18 peptide 4, residues 29-37 of HPV18 protein E6]
MF (mean HLA-A2.1 fluorescence) (HLA-A2.1; [4]): 206.0 | FI (Fluorescence Index) (HLA-A2.1; [5]): 0.5

QQYNKPLCD [residues 97-105 of HPV16 protein E6]
binding ratio to standard (HLA-A3.2; [1]): 0.0045

TLEDLLMGT [HPV16 peptide 15, residues 78-86 of HPV16 protein E7]
MF (mean HLA-A2.1 fluorescence) (HLA-A2.1; [2]): 182.8 | FI (Fluorescence Index) (HLA-A2.1; [3]): 1.8

KFYSKISEY [residues 75-83 of HPV16 protein E6]
binding ratio to standard (HLA-A3.2): 0.0100

CCRSSRTRR [residues 146-154 of HPV16 protein E6]
binding ratio to standard (HLA-A3.2; [1]): 0.0020

CC[C@H](C)[C@H](NC(=O)CNC(=O)[C@H](CC(C)C)NC(=O)[C@@H](N)[C@@H](C)O)C(=O)N[C@H](C(=O)N[C@@H](CS)C(=O)N1CCC[C@H]1C(=O)N[C@H](C(=O)N[C@@H](CS)C(=O)O)[C@@H](C)CC)C(C)C [HPV16 peptide 18]
MF (mean HLA-A2.1 fluorescence) (HLA-A2.1; [2]): 227.8 | FI (Fluorescence Index) (HLA-A2.1; [3]): 2.5

GTLGIVCPI [HPV16 peptide 17, residues 85-93 of HPV16 protein E7]
MF (mean HLA-A2.1 fluorescence) (HLA-A2.1; [2]): 216.1 | FI (Fluorescence Index) (HLA-A2.1; [3]): 2.3

YNIVTFCCK [residues 52-60 of HPV16 protein E7]
binding ratio to standard (HLA-A11.2): 0.0060 | binding ratio to standard (HLA-A3.2; [1]): 0.0067

IILECVYCK [residues 33-41 of HPV16 protein E6]
binding ratio to standard (HLA-A11.2): 6.7000 | binding ratio to standard (HLA-A3.2; [1]): 1.5000

CCKCDSTLR [residues 58-66 of HPV16 protein E7]
binding ratio to standard (HLA-A11.2): 0.0110 | binding ratio to standard (HLA-A3.2; [1]): 0.0016

ELTEVFEFA [HPV18 peptide 6]
FI (Fluorescence Index) (HLA-A2.1): 1.1 | MF (mean HLA-A2.1 fluorescence) (HLA-A2.1): 289.0

LCTELQTTI [HPV16 peptide 3, residues 22-30 of HPV16 protein E6]
MF (mean HLA-A2.1 fluorescence) (HLA-A2.1; [2]): 113.6 | FI (Fluorescence Index) (HLA-A2.1; [3]): 0.7

CMSCCRSSR [residues 143-151 of HPV16 protein E6]
binding ratio to standard (HLA-A11.2): 0.0084 | binding ratio to standard (HLA-A3.2; [1]): 0.1800

KTVLELTEV [HPV18 peptide 5, residues 36-44 of HPV18 protein E6]
MF (mean HLA-A2.1 fluorescence) (HLA-A2.1; [4]): 467.5 | FI (Fluorescence Index) (HLA-A2.1; [5]): 2.3

LTNTGLYNL [HPV18 peptide 9, residues 93-101 of HPV18 protein E6]
MF (mean HLA-A2.1 fluorescence) (HLA-A2.1; [4]): 352.5 | FI (Fluorescence Index) (HLA-A2.1; [5]): 1.5

IHDIILECV [HPV16 peptide 7, residues 30-38 of HPV16 protein E6]
MF (mean HLA-A2.1 fluorescence) (HLA-A2.1; [2]): 150.7 | FI (Fluorescence Index) (HLA-A2.1; [3]): 1.3

VCPICSQKP [residues 90-98 of HPV16 protein E7]
binding ratio to standard (HLA-A11.2): 0.0012

RLCVQSTHV [HPV16 peptide 14, residues 66-74 of HPV16 protein E7]
MF (mean HLA-A2.1 fluorescence) (HLA-A2.1; [2]): 250.0 | FI (Fluorescence Index) (HLA-A2.1; [3]): 2.8

LSFVCPWCA [HPV18 peptide 14, residues 94-102 of HPV18 protein E7]
MF (mean HLA-A2.1 fluorescence) (HLA-A2.1; [4]): 262.0 | FI (Fluorescence Index) (HLA-A2.1; [5]): 0.9

SLQDIEITC [HPV18 peptide 2, residues 24-32 of HPV18 protein E6]
MF (mean HLA-A2.1 fluorescence) (HLA-A2.1; [4]): 243.9 | FI (Fluorescence Index) (HLA-A2.1; [5]): 0.7

LLMGTLGIV [HPV16 peptide 16]
FI (Fluorescence Index) (HLA-A2.1): 0.8 | MF (mean HLA-A2.1 fluorescence) (HLA-A2.1): 118.8

PLCDLLIRC [HPV16 peptide 10, residues 102-110 of HPV16 protein E6]
MF (mean HLA-A2.1 fluorescence) (HLA-A2.1; [2]): 204.8 | FI (Fluorescence Index) (HLA-A2.1; [3]): 2.1

QLCTELQTT [HPV16 peptide 2, residues 21-29 of HPV16 protein E6]
MF (mean HLA-A2.1 fluorescence) (HLA-A2.1; [2]): 211.9 | FI (Fluorescence Index) (HLA-A2.1; [3]): 2.2

TTLEQQYNK [residues 93-101 of HPV16 protein E6]
binding ratio to standard (HLA-A3.2; [1]): 0.0780

AVDLYHFLK [reference compound]
IC50 (HLA-A11.2; read-out: 50% inhibition dose for the probe, unlabeled probe peptide): 9 nM

KLPDLCTEL [HPV18 peptide 1, residues 13-21 of HPV18 protein E6]
MF (mean HLA-A2.1 fluorescence) (HLA-A2.1; [4]): 439.3 | FI (Fluorescence Index) (HLA-A2.1; [5]): 2.1

FQQLFLNTL [HPV18 peptide 11, residues 86-94 of HPV18 protein E7]
MF (mean HLA-A2.1 fluorescence) (HLA-A2.1; [4]): 244.5 | FI (Fluorescence Index) (HLA-A2.1; [5]): 0.8

AMFQDPQER [residues 7-15 of HPV16 protein E6]
binding ratio to standard (HLA-A11.2): 0.8400

DTLEKLTNT [HPV18 peptide 8, residues 88-96 of HPV18 protein E6]
MF (mean HLA-A2.1 fluorescence) (HLA-A2.1; [4]): 238.2 | FI (Fluorescence Index) (HLA-A2.1; [5]): 0.7
